One block for each molecule: values may come before it.
Legend:
collagen = assay: cell adhesion assay
fibrinogen = fibrinogen (UniProt P02671); assay: SPR
fibrinogen, P02671 = target: T1, fibrinogen, P02671; assay: cell adhesion assay; conditions: remark: other sources report otherwise
T1 chain 1: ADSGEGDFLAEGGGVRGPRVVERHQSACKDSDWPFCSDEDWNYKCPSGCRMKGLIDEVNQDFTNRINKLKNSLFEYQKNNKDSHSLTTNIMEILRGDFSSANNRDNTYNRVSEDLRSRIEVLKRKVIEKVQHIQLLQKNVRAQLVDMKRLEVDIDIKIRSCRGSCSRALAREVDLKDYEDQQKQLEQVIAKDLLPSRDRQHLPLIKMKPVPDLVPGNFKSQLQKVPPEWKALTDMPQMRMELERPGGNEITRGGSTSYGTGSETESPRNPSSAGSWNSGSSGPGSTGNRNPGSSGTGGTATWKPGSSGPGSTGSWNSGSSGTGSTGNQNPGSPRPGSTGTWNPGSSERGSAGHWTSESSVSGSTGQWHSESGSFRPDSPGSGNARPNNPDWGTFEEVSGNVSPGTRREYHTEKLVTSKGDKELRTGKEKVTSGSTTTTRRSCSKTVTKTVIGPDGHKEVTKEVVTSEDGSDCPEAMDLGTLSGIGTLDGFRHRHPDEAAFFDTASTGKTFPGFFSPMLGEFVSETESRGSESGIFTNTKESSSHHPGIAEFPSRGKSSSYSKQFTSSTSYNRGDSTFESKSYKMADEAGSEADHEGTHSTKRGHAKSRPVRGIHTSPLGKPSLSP
T1 chain 2: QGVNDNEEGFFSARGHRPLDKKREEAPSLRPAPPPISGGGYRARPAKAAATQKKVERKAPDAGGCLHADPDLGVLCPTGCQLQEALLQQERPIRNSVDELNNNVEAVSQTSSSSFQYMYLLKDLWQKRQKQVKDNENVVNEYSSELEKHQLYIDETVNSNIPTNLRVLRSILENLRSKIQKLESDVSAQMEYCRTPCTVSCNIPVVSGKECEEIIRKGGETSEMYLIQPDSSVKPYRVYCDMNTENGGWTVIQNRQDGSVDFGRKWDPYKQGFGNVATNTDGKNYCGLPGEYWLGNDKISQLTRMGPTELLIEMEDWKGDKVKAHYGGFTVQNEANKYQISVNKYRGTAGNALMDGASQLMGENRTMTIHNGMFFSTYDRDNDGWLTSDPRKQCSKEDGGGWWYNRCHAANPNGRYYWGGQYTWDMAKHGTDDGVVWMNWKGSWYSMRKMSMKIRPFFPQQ
T1 chain 3: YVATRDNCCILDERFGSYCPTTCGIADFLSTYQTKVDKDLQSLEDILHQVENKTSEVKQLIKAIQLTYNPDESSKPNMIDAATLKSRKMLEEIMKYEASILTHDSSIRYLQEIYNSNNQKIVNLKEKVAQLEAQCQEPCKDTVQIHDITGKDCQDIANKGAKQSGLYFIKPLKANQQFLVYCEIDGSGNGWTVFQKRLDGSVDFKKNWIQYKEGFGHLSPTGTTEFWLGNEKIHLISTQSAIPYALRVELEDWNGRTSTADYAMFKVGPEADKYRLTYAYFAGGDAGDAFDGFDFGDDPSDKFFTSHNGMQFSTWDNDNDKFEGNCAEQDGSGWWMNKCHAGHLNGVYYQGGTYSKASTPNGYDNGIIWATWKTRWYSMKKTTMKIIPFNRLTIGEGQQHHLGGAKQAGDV

fold increase in cell adhesion relative to mock-transfected cells (collagen): 3 fold
Molecule: human GPVI expressed on RBL-2H3 cells (from UniProt Q9HCN6 21-339) (receptor)

Kd (fibrinogen): 336 nM
koff (fibrinogen): 0.00394 s⁻¹
kon (fibrinogen): 11700 M⁻¹ s⁻¹
Molecule: recombinant soluble GPVI extracellular domain, monomer (GPVI-ex) (from UniProt Q9HCN6 21-267) (domain or fragment)

fold increase in cell adhesion relative to mock-transfected cells (fibrinogen, P02671): 3 fold
B1: human GPVI expressed on RBL-2H3 cells, Q9HCN6 21-339 (receptor)
chain: QSGPLPKPSLQALPSSLVPLEKPVTLRCQGPPGVDLYRLEKLSSSRYQDQAVLFIPAMKRSLAGRYRCSYQNGSLWSLPSDQLELVATGVFAKPSLSAQPGPAVSSGGDVTLQCQTRYGFDQFALYKEGDPAPYKNPERWYRASFPIITVTAAHSGTYRCYSFSSRDPYLWSAPSDPLELVVTGTSVTPSRLPTEPPSPVAEFSEATAELTVSFTNEVFTTETSRSITASPKESDSPAGPARQYYTKGNLVRICLGAVILIILAGFLAEDWHSRRKRLRHRGRAVQRPLPPLPPLPLTRKSNGGQDGGRQDVHSRGLCS
